Assay results published in paper PMC7367873, “Dissecting the sequence determinants for dephosphorylation by the catalytic subunits of phosphatases PP1 and PP2A” (Nature Communications, 2020).
Values belong to the molecule of their own block, whether it stands above or below them.

Key:
GFP-14-3-3β = GFP-14-3-3β co-IP with LC-MS/MS, untreated GFP-14-3-3β versus GFP control (14-3-3 interactome); assay type: binding, human; conditions: 3 replicates each
[1] = system: GFP-14-3-3β and its binding proteins; test: GFP-14-3-3β co-IP with LC-MS/MS label-free quantification, untreated versus PP1c-treated; parameters: species or system human; conditions: pairwise comparison PP1 vs untreated, 3 replicates each
[2] = pairwise comparison untreated GFP-14-3-3β vs GFP, student's t-test, LC-MS/MS label-free quantification
[3] = student's t-test, LC-MS/MS label-free quantification

B1: HDAC7 (protein, UniProt Q8WUI4 1-952, looked up)
Histone deacetylase 7: MDLRVGQRPPVEPPPEPTLLALQRPQRLHHHLFLAGLQQQRSVEPMRLSMDTPMPELQVGPQEQELRQLLHKDKSKRSAVASSVVKQKLAEVILKKQQAALERTVHPNSPGIPYRTLEPLETEGATRSMLSSFLPPVPSLPSDPPEHFPLRKTVSEPNLKLRYKPKKSLERRKNPLLRKESAPPSLRRRPAETLGDSSPSSSSTPASGCSSPNDSEHGPNPILGSEALLGQRLRLQETSVAPFALPTVSLLPAITLGLPAPARADSDRRTHPTLGPRGPILGSPHTPLFLPHGLEPEAGGTLPSRLQPILLLDPSGSHAPLLTVPGLGPLPFHFAQSLMTTERLSGSGLHWPLSRTRSEPLPPSATAPPPPGPMQPRLEQLKTHVQVIKRSAKPSEKPRLRQIPSAEDLETDGGGPGQVVDDGLEHRELGHGQPEARGPAPLQQHPQVLLWEQQRLAGRLPRGSTGDTVLLPLAQGGHRPLSRAQSSPAAPASLSAPEPASQARVLSSSETPARTLPFTTGLIYDSVMLKHQCSCGDNSRHPEHAGRIQSIWSRLQERGLRSQCECLRGRKASLEELQSVHSERHVLLYGTNPLSRLKLDNGKLAGLLAQRMFVMLPCGGVGVDTDTIWNELHSSNAARWAAGSVTDLAFKVASRELKNGFAVVRPPGHHADHSTAMGFCFFNSVAIACRQLQQQSKASKILIVDWDVHHGNGTQQTFYQDPSVLYISLHRHDDGNFFPGSGAVDEVGAGSGEGFNVNVAWAGGLDPPMGDPEYLAAFRIVVMPIAREFSPDLVLVSAGFDAAEGHPAPLGGYHVSAKCFGYMTQQLMNLAGGAVVLALEGGHDLTAICDASEACVAALLGNRVDPLSEEGWKQKPNLNAIRSLEAVIRVHSKYWGCMQRLASCPDSWVPRVPGADKEEVEAVTALASLSVGILAEDRPSEQLVEEEEPMNL
Difference (log2), untreated vs GFP (GFP-14-3-3β; [2]): 7.896 log2 | Difference (log2), PP1 vs untreated [1, 3]: -2.551 log2

B2: NXF1 (protein, UniProt Q9UBU9 2-619, looked up)
Nuclear RNA export factor 1: ADEGKSYSEHDDERVNFPQRKKKGRGPFRWKYGEGNRRSGRGGSGIRSSRLEEDDGDVAMSDAQDGPRVRYNPYTTRPNRRGDTWHDRDRIHVTVRRDRAPPERGGAGTSQDGTSKNWFKITIPYGRKYDKAWLLSMIQSKCSVPFTPIEFHYENTRAQFFVEDASTASALKAVNYKILDRENRRISIIINSSAPPHTILNELKPEQVEQLKLIMSKRYDGSQQALDLKGLRSDPDLVAQNIDVVLNRRSCMAATLRIIEENIPELLSLNLSNNRLYRLDDMSSIVQKAPNLKILNLSGNELKSERELDKIKGLKLEELWLDGNSLCDTFRDQSTYISAIRERFPKLLRLDGHELPPPIAFDVEAPTTLPPCKGSYFGTENLKSLVLHFLQQYYAIYDSGDRQGLLDAYHDGACCSLSIPFIPQNPARSSLAEYFKDSRNVKKLKDPTLRFRLLKHTRLNVVAFLNELPKTQHDVNSFVVDISAQTSTLLCFSVNGVFKEVDGKSRDSLRAFTRTFIAVPASNSGLCIVNDELFVRNASSEEIQRAFAMPAPTPSSSPVPTLSPEQQEMLQAFSTQSGMNLEWSQKCLQDNNWDYTRSAQAFTHLKAKGEIPEVAFMK
Difference (log2), untreated vs GFP (GFP-14-3-3β; log2 difference, pairwise comparison untreated vs GFP, label-free quantification): 3.395 | Difference (log2), PP1 vs untreated ([1]; log2 difference, label-free quantification): 1.555

B5: SIPA1 (protein, UniProt Q96FS4 1-1042, looked up)
Signal-induced …: MPMWAGGVGSPRRGMAPASTDDLFARKLRQPARPPLTPHTFEPRPVRGPLLRSGSDAGEARPPTPASPRARAHSHEEASRPAATSTRLFTDPLALLGLPAEEPEPAFPPVLEPRWFAHYDVQSLLFDWAPRSQGMGSHSEASSGTLASAEDQAASSDLLHGAPGFVCELGGEGELGLGGPASPPVPPALPNAAVSILEEPQNRTSAYSLEHADLGAGYYRKYFYGKEHQNFFGMDESLGPVAVSLRREEKEGSGGGTLHSYRVIVRTTQLRTLRGTISEDALPPGPPRGLSPRKLLEHVAPQLSPSCLRLGSASPKVPRTLLTLDEQVLSFQRKVGILYCRAGQGSEEEMYNNQEAGPAFMQFLTLLGDVVRLKGFESYRAQLDTKTDSTGTHSLYTTYQDHEIMFHVSTMLPYTPNNQQQLLRKRHIGNDIVTIVFQEPGSKPFCPTTIRSHFQHVFLVVRAHTPCTPHTTYRVAVSRTQDTPAFGPALPAGGGPFAANADFRAFLLAKALNGEQAAGHARQFHAMATRTRQQYLQDLATNEVTTTSLDSASRFGLPSLGGRRRAAPRGPGAELQAAGSLVWGVRAAPGARVAAGAQASGPEGIEVPCLLGISAEALVLVAPRDGRVVFNCACRDVLAWTFSEQQLDLYHGRGEAITLRFDGSPGQAVGEVVARLQLVSRGCETRELALPRDGQGRLGFEVDAEGFVTHVERFTFAETAGLRPGARLLRVCGQTLPSLRPEAAAQLLRSAPKVCVTVLPPDESGRPRRSFSELYTLSLQEPSRRGAPDPVQDEVQGVTLLPTTKQLLHLCLQDGGSPPGPGDLAEERTEFLHSQNSLSPRSSLSDEAPVLPNTTPDLLLATTAKPSVPSADSETPLTQDRPGSPSGSEDKGNPAPELRASFLPRTLSLRNSISRIMSEAGSGTLEDEWQAISEIASTCNTILESLSREGQPIPESGDPKGTPKSDAEPEPGNLSEKVSHLESMLRKLQEDLQKEKADRAALEEEVRSLRHNNRRLQAESESAATRLLLASKQLGSPTADLA
Difference (log2), untreated vs GFP (GFP-14-3-3β; [2]): 4.698 log2 | Difference (log2), PP1 vs untreated [1, 3]: -2.506 log2

The next lines start with results.

Difference (log2), PP1 vs untreated [1, 3]: -2.776 log2
B3: THRAP3 (protein, UniProt Q9Y2W1 2-955, looked up)
Thyroid hormone …: SKTNKSKSGSRSSRSRSASRSRSRSFSKSRSRSRSLSRSRKRRLSSRSRSRSYSPAHNRERNHPRVYQNRDFRGHNRGYRRPYYFRGRNRGFYPWGQYNRGGYGNYRSNWQNYRQAYSPRRGRSRSRSPKRRSPSPRSRSHSRNSDKSSSDRSRRSSSSRSSSNHSRVESSKRKSAKEKKSSSKDSRPSQAAGDNQGDEAKEQTFSGGTSQDTKASESSKPWPDATYGTGSASRASAVSELSPRERSPALKSPLQSVVVRRRSPRPSPVPKPSPPLSSTSQMGSTLPSGAGYQSGTHQGQFDHGSGSLSPSKKSPVGKSPPSTGSTYGSSQKEESAASGGAAYTKRYLEEQKTENGKDKEQKQTNTDKEKIKEKGSFSDTGLGDGKMKSDSFAPKTDSEKPFRGSQSPKRYKLRDDFEKKMADFHKEEMDDQDKDKAKGRKESEFDDEPKFMSKVIGANKNQEEEKSGKWEGLVYAPPGKEKQRKTEELEEESFPERSKKEDRGKRSEGGHRGFVPEKNFRVTAYKAVQEKSSSPPPRKTSESRDKLGAKGDFPTGKSSFSITREAQVNVRMDSFDEDLARPSGLLAQERKLCRDLVHSNKKEQEFRSIFQHIQSAQSQRSPSELFAQHIVTIVHHVKEHHFGSSGMTLHERFTKYLKRGTEQEAAKNKKSPEIHRRIDISPSTFRKHGLAHDEMKSPREPGYKAEGKYKDDPVDLRLDIERRKKHKERDLKRGKSRESVDSRDSSHSRERSAEKTEKTHKGSKKQKKHRRARDRSRSSSSSSQSSHSYKAEEYTEETEEREESTTGFDKSRLGTKDFVGPSERGGGRARGTFQFRARGRGWGRGNYSGNNNNNSNNDFQKRNREEEWDPEYTPKSKKYYLHDDREGEGSDKWVSRGRGRGAFPRGRGRFMFRKSSTSPKWAHDKFSGEEGEIEDDESGTENREEKDNIQPTTE
Difference (log2), untreated vs GFP (GFP-14-3-3β; [2]): 4.049 log2

Difference (log2), PP1 vs untreated [1, 3]: -2.76 log2
B4: TFEB (protein, UniProt P19484 1-476, looked up)
Transcription factor EB: MASRIGLRMQLMREQAQQEEQRERMQQQAVMHYMQQQQQQQQQQLGGPPTPAINTPVHFQSPPPVPGEVLKVQSYLENPTSYHLQQSQHQKVREYLSETYGNKFAAHISPAQGSPKPPPAASPGVRAGHVLSSSAGNSAPNSPMAMLHIGSNPERELDDVIDNIMRLDDVLGYINPEMQMPNTLPLSSSHLNVYSSDPQVTASLVGVTSSSCPADLTQKRELTDAESRALAKERQKKDNHNLIERRRRFNINDRIKELGMLIPKANDLDVRWNKGTILKASVDYIRRMQKDLQKSRELENHSRRLEMTNKQLWLRIQELEMQARVHGLPTTSPSGMNMAELAQQVVKQELPSEEGPGEALMLGAEVPDPEPLPALPPQAPLPLPTQPPSPFHHLDFSHSLSFGGREDEGPPGYPEPLAPGHGSPFPSLSKKDLDLMLLDDSLLPLASDPLLSTMSPEASKASSRRSSFSMEEGDVL
Difference (log2), untreated vs GFP (GFP-14-3-3β; [2]): 5.784 log2
